Test results as given in the DeepSol protein solubility set.

Assay: soluble on expression in E. coli; label from the status in PepcDB or PDB records

| Sequence | soluble on expression in E. coli |
| --- | --- |
| MGSDKIHHHHHHMASFPELPALRRLATLGRSWGLLSDFKYEQTRPDIFYGNLALDTSSLVAALSEDISGAGLNDLKVLDVGGGPGYFAEAFETLGATYFSVEPDVGEMSAAGIDVHGSVRGSGLDLPFLPDSFDVVYSSNVAEHVSAPWELGEEMLRVTRSGGLAILSYTIWLGPFGGHETGLWEHYVGGEFARDRYTKKHGHPPKNVFGESLFNVSCREGLEWGASVGNAELVAAFPRYHPYWVWWMVKVPVLREFAVSNLVLVFKKH | not soluble |
| MEQQSYTIIDETGAHARPATMLVQTASKFDSDIQLEYNGKKVNLKSIMGVMSLGVGKDAEITIYADGSDEADAIQAITDVLSKEGLTE | soluble |
| MGSDKIHHHHHHMDILRKVAEIHGTPTYVYFEETLRKRSRLVKEVFEGVNLLPTFAVKANNNPVLLKILREEGFGMDVVTKGELLAAKLAGVPSHTVVWNGNGKSRDQMEHFLREDVRIVNVDSFEEMEIWRELNPEGVEYFIRVNPEVDAKTHPHISTGLKKHKFGIPLEDLDSFMERFRSMNIRGLHVHIGSQITRVEPFVEAFSKVVRASERYGFEEINIGGGWGINYSGEELDLSSYREKVVPDLKRFKRVIVEIGRYIVAPSGYLLLRVVLVKRRHNKAFVVVDGGMNVLIRPALYSAYHRIFVLGKQGKEMRADVVGPLCESGDVIAYDRELPEVEPGDIIAVENAGAYGYTMSNNYNSTTRPAEVLVRENGRISLIRRRETEMDIFKDVVM | not soluble |
| VQLLESGPGLVKPAQTLSLSCAVSGGSIRSGGYYWSWIRQHPGKGLEWIGYIYHSGNTYYNPSLKSRIAMSVDTSENKFSLRLNSVTAADTAVYYCARLDGYTLDIWGQGTLVTVSSSTKGPSVFPLAPSSKSTSGGTAALGCLVKDYFPEPVTVSWNSGALTSGVHTFPAVLQSSGLYSLSSVVTVPSSSLGTQTYICNVNHKPSNTKVDKRVEP | soluble |
| MGSDKIHHHHHHMIALGIEGTAWSLSIGVVDEEGVIALENDPYIPKEGGIHPREASQHHSERLPSLLSRVFEKVDKNSIDVVAFSQGPGMGPCLRVVATAARLLAIKLEKPLVGVNHCLAHVEVGRWQTGARKPVSLYVSGGNSQVIARRGNRYRVFGETLDIGIGNALDKLARHMGLKHPGGPKIEELAKKGQKYHFLPYVVKGMDFSFSGMVTAAQRLFDSGVRMEDVAFSFQETAFAMLTEVTERALAYLDLNEVLLVGGVAANKRLQEMLRIMCEDRGAKFYVPPKELAGDNGAMIAYTGLLMYKHGHQTPVEKSYVRPDFRIEDVEVNWD | not soluble |
| MRIHNDKNDHGDNNEIMDYILEKYKPLVRKKTNALYLIGGENDDLIQEGMIGLFKAVRDYKSDKEASFYSFAQLCITRQLSSALEASNRKKHMPLNTYISFSQSDSDGTEFEEMLQDDIASPEQLLIEKEKFKEFKEQLWNKLSNMEKKVLQLYLEGNNYTSIAHMLGKSDKSIDNALSRIRQKLKRK | not soluble |
| MLSKVQCILNRRTMADVDVDVPSAAPVLDGAMDINTALQEVLKKSLIADGLVHGIHQACKALDKRQAVLCILAESFDEPNYKKLVTALCNEHQIPLIRVDSHKKLGEWSGLCKIDKEGKPRKVCGCSVVVIKDFGEETPALDVVKDHLRQNSLEHHHHHH | not soluble |
| LAIAAIRNLLIKNDIEILAELTEGGSAVQRVETLKPDIVIIDVDIPGVNGIQVLETLRKRQYSGIIIIVSAKNDHFYGKHCADAGANGFVSKKEGMNNIIAAIEAAKNGYCYFPFSLNRFVGSLTSDQQKLDSLSKQEISVMRYILDGKDNNDIAEKMFISNKTVSTYKSRLMEKLECKSLMDLYTFAQ | not soluble |
| MGSDKIHHHHHHMPEPDPLRIKTFTTPKDLGEWLKVNHGSERELWVKIYKKNTGIESVTWNDVVIEVLCWGWIDGIKKSIDDQAYLQRITPRKMRSNWSKRNTEHAERLISEERMMESGLVHIRAAKSDGRWENAYVVSEMEVPADFLAALENKSNAKAFFETLNKSSRYVIAYGLISAKKPETRLRRFEKFMNMLVHEEKPK | not soluble |
| MERSALVTGGASGLGRAAALALKARGYRVVVLDLRREGEDLIYVEGDVTREEDVRRAVARAQEEAPLFAVVSAAGVGLAEKILGKEGPHGLESFRRVLEVNLLGTFNVLRLAAWAMRENPPDAEGQRGVIVNTASVAAFEGQIGQAAYAASKGGVVALTLPAARELAGWGIRVVTVAPGLFDTPLLQGLPEKAKASLAAQVPFPPRLGRPEEYAALVLHILENPMLNGEVVRLDGALRMAPR | soluble |
| MDKQLNDAPCGFLALSEEGSIIAANRTLIKILDYEPEQVIGQHMNMMLTIPAQLFCQLYFFPLLKLEHHIEEIYISLKARDGEEIPVLINAIARHDSGASVFDCVL | not soluble |
| MAAAVRSVKGLVAVITGGASGLGLSTAKRLVGQGATAVLLDVPNSEGETEAKKLGGNCIFAPANVTSEKEVQAALTLAKEKFGRIDVAVNCAGIAVAIKTYHEKKNQVHTLEDFQRVINVNLIGTFNVIRLVAGVMGQNEPDQGGQRGVIINTASVAAFEGQVGQAAYSASKGGIVGMTLPIARDLAPIGIRVVTIAPGLFATPLLTTLPDTVRNFLASQVPFPSRLGDPAEYAHLVQMVIENPFLNGEVIRLDGAIRMQP | soluble |
| MFLEECKTHFNTDCLYELLGVKKDCDEKALKKGYYRQSMRWHPDKSNLVEEDMQTYTTKFQLLNKAYQILSDEEKRKIYDETGSVDDEAGELNEDALKAWRMIFKKVTKEDIDSFMKTYQGSREQKDELVVHYEKFNGDIAKIREYAIGFDGVEELKEALDKLIDDGEIEKTKKYETSTSDKKMKAYKRKAEKEAIEVENMTQNNSDLVALIQGRQKERGTSFLDSLAAKYAPSSSKKAKRQ | not soluble |
| MGSDKIHHHHHHMIHWLKVPNNPELAKYIACYWFLEKLPNAEGHNDYPKLNPDPASHLILALPQQNFRYKSDNGVTQMDGCHWLHPHGKTYELDHAKAVACIGIKFHVGALYSLPTFMDLQEQTPQAVVDTVEAISFENINFAQSNFDDHKLSDNNQLNEHDLVILARNSPDDCAEMLDKLCLPWLLKNHEDNHSELTRKVLPLLAKAAINSLGDTLFCSQRTLERSFLKVSGVTLKQCQSMNRLEAILEFLYQREQSDIDWVDIAYQFGFSDQPHLIRYLKKQLGLTPQDYALQRGFTIDVYGGVDSL | not soluble |
| MSLFYYIVDDDEVFRSMLSQIIEDGDLGEVIGESEDGAFVEAEQLNYKKVDILFIDLLMPMRDGIETVRHIASSFTGKIIMISQVESKQLIGEAYTLGVEYYITKPLNKIEVVSVVRKVIERIRLERSIYDIQKSLNNVFQWEKPQMRSETVQEEKKISDSGRFLLAELGIAGENGSKDLLSMLEYLYGQEKAQTFEFGFPALKDIFHQITLKKLGEIASDADIEKEKKASEQRVRRAIYQSLNHLASLGLTDFSNPKFESYAPKFFDFTVVRKRMTEMTKDGVATSGHIRINTKKFIQVLYFEAKRLMEIEEGHHHHHH | soluble |
| VTGAIDPNLFTDAVLQVAAAAGRDETLPMLTGIHMEIDGENVTLTATDRFRLALRRFTWSPANPEAKAKLLIPAKNLSDNARSLDSGSTEPVEIAVGTGENIGAEGLFGIHIDNRQTTTRMLDADFPNVSPLL | not soluble |
| MGSDKIHHHHHHMFKTAVGHSNDPDSLSAIEEVLQQCVSSLGGDIPKAGILFSAIDFEHALILQQIHQFFPGIELIGGTTDGEISSVLEFQQDSITLMLFCSDEVEINAGVGRKVSVDPIAVTKQAVEQAKAKTTETPRLCLTHPESLTISGVSILHGLKLALGQNVPIFGGLAGDQSRYQNTYQFFQTEVLSDSVPILLFSGTILFSHGVASGWHPIGQISQVTKVDKNILYEIDGKPALDFYHHYLGLLPPSMEYPLAVFDQNRDNFYIRAPIAYNQDSGSITFFADIPDRAVIQIAEACYEDILAASKASFMNALNNYPGAEPSAVLFFSCVARRQILGTRAKEEYQNTKLCLTYHLPGCGFYSYGEIAPIDGMSQTQFHNETFVTLILGTR | not soluble |
| MGSDKIHHHHHHMTDSRQRLLVFAPTRRVASETFVRANLAGLPFEVSAYFGDEFPLDQPGRFAYGLGVLLSKIFTRLGWLRLAELPAAFVAWILIRRHRPDVVLAEFGFHAVRVMQAAARVDVPFVVHFRGSDLSANRRLGVLRSRYRRLVSIASGVVCKSRPMATTLEQLGASPSTILISPSGANPALFSVGDPALAAPVFLAVGRFVAKKGPLQTIRAFAGQPQGELWMVGEGPLLAEARRLVQALQVQDRVRFLGVKTQSEVAALMRQARVFVQHSQIAPDGDSEGNPVSVMEAQLCGLPVVATLHAGIPDVVLDGSTGLLVEENDVDGMAEAMTRLMADPNLAAQFGLAGRERVLAAFTLEHHLQDLTRFLQQQIRSTTHF | not soluble |
| GPHSLRYFVTAVSRPGLGEPRFISVGYVDNTEFVRFDSDAENPRYEPRARWMEQEGPEYWERETQKAKGNEQSFRVDLRTLLGYYNQSKGGSHTIQVISGCEVGSDGRLLRGYQQYAYDGCDYIALNEDLKTWTAADMAALITKHKWEQAGEAERLRAYLEGTCVEWLRRYLKNGNATLLRTDSPKAHVTHHSRPEDKVTLRCWALGFYPADITLTWQLNGEELIQDMELVETRPAGDGTFQKWASVVVPLGKEQYYTCHVYHQGLPEPLTLRWEPPPST | soluble |
| MLLSLYIPPGRPLSDVMTLLRQEYSITDNIKLKRTRQAVKRALSAAMDRLQMLTSTPPNGLVLFCGEDMSTGKFECFMFSPPEPIRVFYYRTDKRFITDFLEDMVEDNNAIGIIIVERDQATIGLLKGARLEVLKELEGFVPGKHKMGGQSQRRYERIIEQMVDEFFKKVGEEASNLLVPLAEKGVLKGVIVAGPGLAKQEFVEGNYLDYRLKKILAPELVDVAYQGLQGLKEAVMKAEKVVEAQMYRDAVNAMEEFKLHLAKGTGMIVYGEKDVEAALEMGAVKTLLIHESREDLEEWVEKAKSSGAQVIVVPESLAEAEWFLKTFGGLAGILRFRISTV | soluble |
| MSLRPSAPELDHAKRQRLARLPKPVPLGVCTLREQRWVVLDLETSGLNPNRDQVLSIGAVAIEDGAIDFAQQFERTLHRPLQKTNASVLIHGLGPSALAAGCDPAEALLDLLDFIGNSPVLAFHAPFDQRMLARALKETLGHRLQSMFLDVAELAPMLNPDTVLREAGLDDWVARFGLQVEERHHASADAQVTAELALILFSQARRQQLDSPLQLEQRLRGWRRRKMQSHGEGHHHHHH | soluble |
| MHDALRAYIEKYASEKISDADFEEVKKAFTFKRYKKGQFLLQEGEVSKYTAFVLKGSMRQYSVDAKGTEHIIHFGIENWWVGDRESSTMLTPSNYNIDAIEDTEVLLTTSEDLQQLTAALPVIGKMVNTMNQRNFIASQKRIHDALSLTAEERYLELLKNHPDFLQRFPQTMLASYLGITAETYSRIRKKALK | not soluble |
| MPPGKNFRRRKEDSSDEEDDETKFVVRSKLDEAKELQSLRKRQHGVSIATLLVGEKLPLEAELEDDPFKLKTGGVVDMKKVKDRSRDMTVDENDLNLGTSFSAETNRRDEDADMMKYIETELKKKKGMVEAEEQKVKVKNPEDLLYELPENINVSSAKKTEEMLSNQMLSGIPEVDLGIDAKIKNIINTEEAKAKLLAEQRNKKKDSGTSFVPTNIAVNYVQHNRFYHEDSNAPQRRNREEPKARPLRVGDTEKPAPEASPPNFRKRPNNEKATDDYHYEKFKKMNRRY | soluble |
